According to CN110760489A, “一种川芎咖啡酸-o-甲基转移酶的突变体及其用途” (Southwest Jiaotong University, priority 2019, dated 2020):
Where a chain is given by its changes, count along the chain named. Numbers in names are those of the source.

B1: Ligusticum chuanxiong caffeic acid O-methyltransferase LcCOMT, wild type [野生型LcCOMT; 川芎咖啡酸-O-甲基转移酶] (Conioselinum anthriscoides) (protein)
chain: MNTELIPPTFLEDEEEEACMFAMQLSSASVLPMVLKSAIELNLLESIAKAGPGVYVSPSHLAAGLPSSQPDTPVMLDRILRLLASYSVLNCQLRDLPQGRVERLYGLAPVCKFLTKNSDGVSMAPLLLMNQDKILMESWYHLKDAVLDGGIPFNKAYGMTAFEYHGKDPRFNKVFNQGMSNHSTITMKKILQTYDGFGGLKTVVDVGGGTGATLNMIISKYPNLKGINFDLPHVVEDAPSYPGVEHVGGDMFVSVPKGDAIFMKWICHDWSDAHCLTFLKNCYKALPKDGKVILAECILPEAPDSKLTTKNVIHIDVIMLAHNPGGKERTEKDFEALGKEAGFKSFNKACCAYNTWVIEYYK
B2: Ligusticum chuanxiong caffeic acid O-methyltransferase LcCOMT variant LcCOMT-I318T (Ile318 to Thr), SEQ ID No.2 [LcCOMT-I318T突变体; 川芎咖啡酸-O-甲基转移酶] (Conioselinum … (protein)
chain: B1 chain with I318T

How the values were obtained:
[1] = substrate: COC(=O)/C=C/c1ccc(O)c(O)c1; experiment: 动力学参数值测定 (kinetic parameters, double-reciprocal method), wild-type LcCOMT; assay type: biochemical, Ligusticum chuanxiong; conditions: other: substrate 咖啡酸甲酯 0.0715-0.25 mM, S-adenosylmethionine 1 mM, pH 7.0, 37℃, HPLC, double-reciprocal plot, 37.0 °C
[2] = substrate: COC(=O)/C=C/c1ccc(O)c(O)c1; experiment: 动力学参数值测定 (kinetic parameters, double-reciprocal method), LcCOMT-I318T mutant; assay type: biochemical, Ligusticum chuanxiong; conditions: other: substrate 咖啡酸甲酯 0.0715-0.25 mM, S-adenosylmethionine 1 mM, pH 7.0, 37℃, HPLC, double-reciprocal plot, 37.0 °C

Row | Protein | Km [1] [µM] | Vmax [1] | kcat [1] [S-1] | Km [2] [µM]
1 | B1 | 26.4 | 2.643*10^-8 M/S | 0.113 | 
2 | B2 |  |  |  | 19.7
